Assay results reported in patent US20020058247A1 (TRIPEP, published 2002).

Experiments:
[1] = molecular target: T1, VKLSCKASGYIFTSHRGGPEE (SEQ. ID. No. 74); assay: competition EIA, 5 ug HBcAg peptide + 5 ug SEQ 74 peptide on coated HBcAg (competitor); OD of bound SEQ 74 peptide
T1 peptide: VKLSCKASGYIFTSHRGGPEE

[2] = molecular target: T2, Full length recombinant HBcAg (rHBcAg) encompassing residues 1-183 (hepatitis B virus, UniProt P03146 1-183); assay: competition EIA, peptide added to HBcAg before mAb 4-2 (competitor); OD of bound mAb
T2 construct: range 1-183; also called hepatitis B virus core antigen
T2 sequence (P03146 whole entry, the tested form may be a part): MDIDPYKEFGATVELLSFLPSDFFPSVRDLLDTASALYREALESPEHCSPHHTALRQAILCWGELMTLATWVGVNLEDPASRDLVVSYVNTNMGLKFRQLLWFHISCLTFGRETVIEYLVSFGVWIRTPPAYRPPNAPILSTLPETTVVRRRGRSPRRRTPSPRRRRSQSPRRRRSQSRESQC

[3] = molecular target: T2, Full length recombinant HBcAg (rHBcAg) …; assay: EIA, support-bound peptide, HBcAg 5 ug/ml

B1: HBcAg peptide LWFHISCLTFGRETVIEYLV (residues 101-120, Sequence ID 105) (peptide)
peptide: LWFHISCLTFGRETVIEYLV
For B1, the “OD at 490 nm” value [1] was 1.13 OD.

B2: HBcAg peptide CWGELMTLATWVGVNLEDPA (residues 61-80, Sequence ID 101) (peptide)
peptide: CWGELMTLATWVGVNLEDPA
With B2 the “OD at 490 nm” value [1] was 1.4 OD.

B3: CKASGYIFTS (SEQ. ID. No. 48) (peptide)
peptide: CKASGYIFTS
In the case of B3, the “OD at 490 nm” value [2] is reported as 0.851 OD and the “OD at 490 nm” value [3] is reported as 0.255 OD.

B4: HBcAg peptide WVGVNLEDPASRDLVVSYVN (residues 71-90, Sequence ID 102) (peptide)
peptide: WVGVNLEDPASRDLVVSYVN
For B4, the “OD at 490 nm” value [1] was 1.41 OD.

B5: HBcAg peptide ATVELLSFLPSDFFPSVRDL (residues 11-30, Sequence ID 96) (peptide)
peptide: ATVELLSFLPSDFFPSVRDL
In the case of B5, the “OD at 490 nm” value [1] is reported as 1.39 OD.

B6: SCKASGYIFTS (SEQ. ID. No. 47) (peptide)
peptide: SCKASGYIFTS
For B6, the “OD at 490 nm” value [2] was 0.784 OD and the “OD at 490 nm” value [3] was 0.297 OD.

B7: HBcAg peptide SDFFPSVRDLLDTASALYRE (residues 21-40, Sequence ID 97) (peptide)
peptide: SDFFPSVRDLLDTASALYRE
In the case of B7, the “OD at 490 nm” value [1] is reported as 1.58 OD.

B8: SGYIFTS (SEQ. ID. No. 51) (peptide)
peptide: SGYIFTS
B8 was tested, and the “OD at 490 nm” value [2] was 0.887 OD and the “OD at 490 nm” value [3] was 0.389 OD.

B9: HBcAg peptide AYRPPNAPILSTLPETTVVR (residues 131-150, Sequence ID 108) (peptide)
peptide: AYRPPNAPILSTLPETTVVR
For B9, the “OD at 490 nm” value [1] was 1.56 OD.

B10: ASGYIFTS (SEQ. ID. No. 50) (peptide)
peptide: ASGYIFTS
B10 was tested, and the “OD at 490 nm” value [2] was 0.92 OD and the “OD at 490 nm” value [3] was 0.407 OD.

B11: SVKLSCKASGYIFTS (SEQ. ID. No. 43) (peptide)
peptide: SVKLSCKASGYIFTS
With B11 the “OD at 490 nm” value [2] was 0.175 OD and the “OD at 490 nm” value [3] was 3.36 OD.

B12: HBcAg peptide LDTASALYREALESPEHCSP (residues 31-50, Sequence ID 98) (peptide)
peptide: LDTASALYREALESPEHCSP
B12 was tested, and the “OD at 490 nm” value [1] was 1.59 OD.

B13: GYIFTS (SEQ. ID. No. 52) (peptide)
peptide: GYIFTS
For B13, the “OD at 490 nm” value [2] was 0.903 OD and the “OD at 490 nm” value [3] was 0.414 OD.

B14: VKLSCKASGYIFTS (SEQ. ID. No. 44) (peptide)
peptide: VKLSCKASGYIFTS
In the case of B14, the “OD at 490 nm” value [2] is reported as 0.152 OD and the “OD at 490 nm” value [3] is reported as 3.7 OD.

B15: KLSCKASGYIFTS (SEQ. ID. No. 45) (peptide)
peptide: KLSCKASGYIFTS
In the case of B15, the “OD at 490 nm” value [2] is reported as 0.808 OD and the “OD at 490 nm” value [3] is reported as 3.69 OD.

B16: HBcAg peptide TNMGLKFRQLLWFHISCLTF (SEQ. ID. No. 104, residues 91-110) (peptide)
peptide: TNMGLKFRQLLWFHISCLTF
B16 was tested, and the “OD at 490 nm” value [1] was 0.058 OD.

B17: LSCKASGYIFTS (SEQ. ID. No. 46) (peptide)
peptide: LSCKASGYIFTS
For B17, the “OD at 490 nm” value [2] was 0.777 OD and the “OD at 490 nm” value [3] was 0.565 OD.

B18: GASVKLSCKASGYIFTS (SEQ. ID. No. 41) (peptide)
peptide: GASVKLSCKASGYIFTS
For B18, the “OD at 490 nm” value [2] was 0.205 OD and the “OD at 490 nm” value [3] was 2.86 OD.

B19: ASVKLSCKASGYIFTS (SEQ. ID. No. 42) (peptide)
peptide: ASVKLSCKASGYIFTS
In the case of B19, the “OD at 490 nm” value [2] is reported as 0.207 OD and the “OD at 490 nm” value [3] is reported as 3.22 OD.

B20: HBcAg peptide SRDLVVSYVNTNMGLKFRQL (SEQ. ID. NO. 103, residues 81-100) (peptide)
peptide: SRDLVVSYVNTNMGLKFRQL
For B20, the “OD at 490 nm” value [1] was 0.386 OD.

B21: HBcAg peptide ALESPEHCSPHHTALRQAIL (residues 41-60, Sequence ID 99) (peptide)
peptide: ALESPEHCSPHHTALRQAIL
For B21, the “OD at 490 nm” value [1] was 1.37 OD.

B22: KASGYIFTS (SEQ. ID. No. 49) (peptide)
peptide: KASGYIFTS
B22 was tested, and the “OD at 490 nm” value [2] was 0.866 OD and the “OD at 490 nm” value [3] was 0.237 OD.
